Values joined by “and” are separate entries in the source; they are usually repeats but may differ in a detail not shown here. Equal entries are not always repeated. Where two headings read alike, the source gives them in different places.
Assays:
Format in all cases: biochemical
AdoMet and poly(dIdC) [1] = test: continuous luciferase-linked AdoHcy assay of DNMT kinetics; conditions: for activity of catalytic domain alone (initial reaction rates): without DNMT3L, even at high substrate and enzyme concentrations
Description: AdoHcy to ATP Conversion Buffer. The 2×AdoHcy to ATP conversion buffer was prepared as previously described with minor modifications (17). In brief, 100 mL of buffer contained 100 mM Tris-acetate pH 7.7, 2 mM PEP, 2 mM sodium pyrophosphate, 2 mM PRPP, 15 mM (NH4)2SO4, 15 mM (NH4)2MoO4, and phosphatase inhibitors (Roche PhosSTOP, 10 tablets). A 4:1 cellulose:charcoal mixture was suspended in water and packed into a disposable mini-column to a bed volume of 1.5 mL, through which a 10 mL aliquot of the previously prepared buffer was passed at 2 mL/min to remove traces of adenine, AMP, and ATP. Treated buffer was filtered (0.2 μm) and stored in 1 mL aliquots at −80° C. Immediately prior to use, the 2× conversion buffer was completed by additions to give final concentrations of 10 mM MgSO4, 6 U APRTase, 18 U PPDK, and 250 nM MTAN and an increase in volume of 14 μL.
DNMT Kinetics using Continuous Luciferase Assay. Continuous assay buffer (2×) was prepared by adding 200 μl luciferin/luciferase (ATPlite) to 1 mL of the AdoHcy to ATP conversion buffer and warmed to room temperature. To 25 μL of this mixture was added AdoMet and the DNA substrate in DNMT assay buffer (25 mM HEPES pH 7.6, 50 mM KCl, 5% glycerol, 0.1% DTT) in a 96-well non-binding surface microplate. The mixture was incubated at room temperature for 3 min to permit any contaminating adenine, AMP, ATP or 5′-methylthioadenosine (MTA) to be converted to a stable background light signal as measured in the kinetic acquisition mode of the luminometer for 3 min. DNMT was added to give a final volume of 50 μL. After 3 min, the luminescent signal was measured for the following 3 min. […] Initial rates were calculated by subtracting the background rate from that obtained after DNMT addition. Initial rates were fitted to the Morrison equation for tight binding substrates with the exception of data obtained while using M.SssI CpG methyltransferase which were fit to the Michaelis-Menten equation. The Morrison equation was used as high enzyme concentrations were necessary and it could no longer be assumed that free substrate concentration was equal to total substrate concentration. The kinetic parameters Km and Vmax were obtained from these fits after converting the luminescent rate (RLU/s) to an enzymatic rate (pmol AdoHcy/h) using the AdoHcy standard curve. The AdoHcy standard curve was constructed by mixing 25 μL of DNMT assay buffer containing varied concentrations of AdoHcy with 25 μL of continuous assay buffer, incubating for several minutes, and then measuring the luminescence of each sample in the discontinuous acquisition mode of the luminometer. Values were background corrected using a mixture containing no AdoHcy.

AdoMet and poly(dIdC) [2] = test: discontinuous luciferase-linked AdoHcy assay of DNMT1 rate; conditions: 258 nM DNMT1, 682 nM AdoMet
Description: DNMT1 Rate Measurement using Discontinuous Luciferase Assay. DNMT1 was added to a solution of 682 nM AdoMet and 1 μg poly(dIdC) in DNMT assay buffer to a concentration of 258 nM in 300 μL total volume which had been equilibrated to 22° C. or 37° C. A control reaction containing no DNMT1 was also performed at 37° C. 15 μL aliquots of the reaction were quenched with 5 μL of 100 mM HCl at 2 min intervals from 2 to 10 min in triplicate. These were neutralized with 5 μL of 100 mM KOH and were mixed with 25 μL of 2×AdoHcy to ATP conversion buffer and incubated at room temperature for several minutes. 20 μL of each mixture were then mixed with 80 μL of ATPlite in a 96-well non-binding surface microplate. These mixtures were incubated at room temperature for several minutes and their luminescence was measured in the single measurement mode of the luminometer. […]
Initial reaction rates for human DNMT1 were measured both at room temperature and at 37° C. […] After incubation at room temperature for ˜3 min, the luminescence of each sample was measured and an initial rate plot was constructed (FIG. 5A). Initial rates measured in RLU/s were converted to units of pmol/h with an AdoHcy standard curve constructed under the same assay conditions (Table 2). […] The discontinuous rates were readily measured even at low AdoMet concentrations, and the assay is suitable for automated screening. […]

[3] = test system: [methyl-3H]AdoMet and poly(dIdC); test: radiometric filter paper assay of DNMT1 rate; conditions: 258 nM DNMT1, 672 nM [methyl-3H]AdoMet
Description: DNMT1 Rate Measurement using Radiometric Assay. The same two reactions were prepared as above for the discontinuous luciferase assay with the exception that 672 nM S-adenosyl-1-[methyl-^3H]methionine was used in place of non-radioactive AdoMet. 15 μL aliquots were removed from each reaction in triplicate at 2 min intervals from 2 to 8 min and spotted on 2.3 cm diameter Whatman DE81 filter paper circles which were allowed to dry for 30 min. The circles were washed with 0.2 M NH4HCO3 (4×2 mL), water (4×2 mL), and absolute ethanol (1×2 mL); each wash lasted 5 min before decanting the liquid. Circles were then dried for 1 h, then placed in scintillation vials and covered with 10 mL Betaplate Scint scintillation fluid. Radioactivity was measured on a Tricarb scintillation counter and background was corrected with a no-enzyme control. A conversion factor of 12 CPM/fmol was used.
Parallel reactions were performed with 672 nM [methyl-^3H]AdoMet to compare the initial rates from the luciferase assay with those obtained from the radiometric filter paper assay (4, 5). Reactions were limited to approximately 700 nM AdoMet because of the concentration of the [methyl/-^3H]AdoMet stock solution. The luciferase-linked assays were performed at the same AdoMet concentration. […] The dried circles were analyzed for radioactivity in a scintillation counter. […]

| Substance | activity of catalytic domain alone (initial reaction rates) (AdoMet and poly(dIdC) [1]) | Initial rate (AdoMet and poly(dIdC) [1]; continuous assay, 258 nM DNMT1, 682 nM AdoMet, 1 μg poly(dIdC) per 50 μL) | Vmax (AdoMet and poly(dIdC) [1]; room temperature) [pmol/h] | kcat (AdoMet and poly(dIdC) [1]; room temperature) | Km (AdoMet and poly(dIdC) [1]; room temperature, 1 μg poly(dIdC), value as printed in the text, read-out: Km for AdoMet) [µM] | Km (AdoMet and poly(dIdC) [1]; room temperature, near saturating AdoMet: 35 μM for DNMT1, 10 μM for CD-DNMT3a/3b complexes with DNMT3L, read-out: Km DNA (poly(dIdC))) | Km (AdoMet and poly(dIdC) [1]; room temperature, near saturating poly(dIdC), dIdC base pair concentration 16.4 μM, read-out: Km AdoMet) [µM] | Initial rate (AdoMet and poly(dIdC) [2]; 22° C. (room temperature)) | Initial rate (AdoMet and poly(dIdC) [2]; 37° C.) | Initial rate ([3]; 22° C.) [pmol/h] | Initial rate ([3]; 37° C.) [pmol/h] |
| --- | --- | --- | --- | --- | --- | --- | --- | --- | --- | --- | --- |
| CD-DNMT3a: 286 amino acid C-terminal catalytic domain of human DNMT3a (residues 627-912), His6 tagged | low activity | – | – | – | – | – | – | – | – | – | – |
| CD-DNMT3b: 286 amino acid C-terminal catalytic domain of human DNMT3b (residues 568-853), His6 tagged | low activity | – | – | – | – | – | – | – | – | – | – |
| DNMT1: full-length human DNA (cytosine 5)-methyltransferase 1, N-terminal His6 tag, expressed in SF9 cells | – | 30 pmol/h and 30.1 pmol/h | 726 ± 75 | 0.00778 ± 0.00083 s⁻¹ and 0.00781 s⁻¹ | 2.7 ± 0.7 | 0.84 µM and 0.837 µM | 2.66 ± 0.75 | 6.3 pmol/h and 6.26 pmol/h | 7.5 pmol/h and 7.52 pmol/h | 11.6 | 13.0 |
